Seven molecules from patent publication US20220226469A1 (ARCH ONCOLOGY, published 2022) can be followed below.

In assay [1] the target is T1, human SIRPα expressed on cells (THP-1 cells, human monocyte-derived macrophages, dendritic cells) (human, UniProt P78324 31-504).
T1 construct: Endogenous SIRPα of cell line or donor cells; also called cell-expressed SIRPα; macrophage expressed SIRPα
Nature of the assay: flow cytometry on human monocyte-derived dendritic cells; apparent Kd. On the procedure:
(§1) Human CD14⁺ monocytes, isolated from peripheral blood mononuclear cells (Astarte Biologics) were differentiated in vitro for seven days into macrophages or dendritic cells. For macrophage differentiation, monocytes were incubated in AIM-V media (Life Technologies) supplemented with 50 ng/ml M-CSF (Biolegend) for seven days. For dendritic cell differentiation, monocytes were incubated in AIM-V media (Life Technologies) in the presence of 10% human AB serum (Valley Biomedical), 200 ng/ml GM-CSF (Biolegend) and 50 ng/ml IL-4 (Biolegend). The cells were incubated for 1 h at 37° C., 5% CO₂ with serial dilutions of SIRP mAbs in binding buffer containing 1 mM EDTA (Sigma Aldrich) and 1% FBS (Biowest) in PBS (Corning). The cells were then washed and stained for 45 min under the same conditions with donkey anti-mouse IgG fluorescein isothiocyanate (FITC)-linked secondary antibody (Jackson ImmunoResearch Laboratories). The cells were subsequently stained with anti-CD14 or anti-CD11c conjugated to Alexa Fluor 647 fluorophore (Life Technologies and Biolegend, respectively) for 30 min on ice, washed and analyzed by flow cytometry (Attune, Life Technologies). Binding was assessed as the median FITC fluorescence intensity of CD14⁺ or CD11c⁺ cells, subtracted from cells stained with the secondary antibody only.
Background: A flow cytometer gives signals particle by particle.

Assay [2] deals with T2, HIS tagged human SIRPα (ACRO #SIG-H5225) (human, UniProt P78324 31-373).
T2 construct: Bought protein; also called Histidine (HIS) tagged human SIRPα; not shown: histidine tag
T2 sequence (P78324 31-373 limits assumed): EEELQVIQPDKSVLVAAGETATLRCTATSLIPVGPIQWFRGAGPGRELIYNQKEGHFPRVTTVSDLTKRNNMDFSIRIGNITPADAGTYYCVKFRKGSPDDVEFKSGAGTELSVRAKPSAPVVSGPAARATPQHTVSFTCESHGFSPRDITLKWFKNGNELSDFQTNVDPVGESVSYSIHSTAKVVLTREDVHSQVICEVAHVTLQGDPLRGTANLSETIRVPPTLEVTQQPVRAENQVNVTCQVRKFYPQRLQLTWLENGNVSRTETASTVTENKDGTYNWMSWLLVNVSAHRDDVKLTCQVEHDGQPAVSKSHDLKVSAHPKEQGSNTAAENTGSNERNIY
Nature of the assay: blocking ELISA on plate-coated HIS tagged human SIRPα; competitor Fc tagged human CD47 (250 ng/ml). As for the experimental part:
HIS tagged human SIRPα (ACRO #SIG-H5225) is adsorbed to high-binding microtiter plates at a concentration of 1 μg/ml diluted in PBS overnight at 4° C. The coating solution is removed, the wells are washed and then blocked with […] in PBS containing 0.5% Tween 20 (PBST) for 60 minutes at room temperature while shaking. Blocking solution is removed, the wells are washed and incubated for 60 minutes at room temperature while shaking with anti-SIRP mAbs diluted in PBST at a starting concentration of 30 μg/ml and reducing the concentration by 3-fold serial dilutions. Wells are washed three times with PBST and incubated for 60 minutes at room temperature while shaking with an FC tagged human CD47 (ACRO #CD7-H5256) at a concentration of 250 ng/ml in PBST. Wells are washed three times with PBST and incubated for 60 minutes at room temperature while shaking with an HRP labeled donkey anti-mouse or anti-human secondary antibody (Jackson ImmunoResearch Laboratories) diluted 1:20,000 in PBST. The wells are washed and then incubated with peroxidase substrate and the absorbance at 450 nm determined. The IC₅₀ was calculated using a non-linear fit model (GraphPad Prism).
(In general: An ELISA detects its analyte on a solid surface through an enzyme-linked reagent.)

In assay [3] the target is T1, human SIRPα expressed on cells (THP-1 …). Nature of the assay: flow cytometry on human monocyte-derived macrophages; apparent Kd. As for the experimental part: as §1

T1 sequence (P78324 other isoform, or with tags, fused parts or gaps): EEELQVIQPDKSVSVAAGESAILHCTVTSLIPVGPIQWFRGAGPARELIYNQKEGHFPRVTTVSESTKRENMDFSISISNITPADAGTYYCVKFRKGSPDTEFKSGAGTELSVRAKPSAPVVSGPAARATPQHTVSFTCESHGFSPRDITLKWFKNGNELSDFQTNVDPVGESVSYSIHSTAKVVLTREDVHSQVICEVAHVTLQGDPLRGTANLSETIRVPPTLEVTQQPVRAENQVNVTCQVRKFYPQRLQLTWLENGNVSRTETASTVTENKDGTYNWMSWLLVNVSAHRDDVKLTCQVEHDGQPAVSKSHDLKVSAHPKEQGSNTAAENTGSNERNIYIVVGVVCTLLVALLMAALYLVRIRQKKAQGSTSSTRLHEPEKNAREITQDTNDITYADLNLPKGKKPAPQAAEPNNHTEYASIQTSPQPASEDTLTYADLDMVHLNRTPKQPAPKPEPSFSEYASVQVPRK

B1: SIRP3 (antibody, mouse IgG1, kappa, V domains shown)
VH: EVQLQQSGPEVVKPGASVKMSCKASGYTFTSYVMHWVKQKPGQGLEWIGYINPYNDGPKYNEKFKGKATLTSDKSSSTAYMELSSLTSEDSAVYFCARWDYFNSASGFAFWGQGTLVTVSA
VL: EIVLTQSPTTMAASPGEKITIICSASSIIGSDFLHWYQQRPGFSPKFLIYRTSILASGVPTRFTGSGSGTSYSLTIGTMEAEDVATYYCQQGSGLPLTFGSGTKLEMKR
notes: Hybridoma-derived mouse mAb
Regarding B1, the Kd in assay [1] amounted to 0.00347 nM. The IC50 in assay [2] amounted to 2.7 nM.

B2: SIRP9 (antibody, V domains shown)
VH: EVQLQESGAELVRPGASVKLSCKALGYTFTDYEIHWVKETPVYGLEWIGDIHPGSGGTANNQKFKGKATLTADKSSNTAYMELSSLTSEDSAVYYCTRAVSGYYAMDYWGQGTSVTVSS
VL: DIQMTQSSSSFSGSLGDRLTINCKASEDIYDRVAWYQQKPGNAPRLLISGTASLETGVLSRFSGSGSGKDYTLSINGLQAEDVATYYCQQYWTTPWTFGGGTKLEIK
notes: anti-mouse secondary
For B2, in assay [3], the Kd is 0.0937 nM.

B3: KWAR-23 (antibody, V domains shown)
VH: EVQLQQSGAELVKPGASVKLSCTASGFNIKDYYIHWVQQRTEQGLEWIGRIDPEDGETKYAPKFQDKATITADTSSNTAYLHLSSLTSEDTAVYYCARWGAYWGQGTLVTVSA
VL: QIVLTQSPAIMSASPGEKVTLTCSASSSVSSSYLYWYQQKPGSSPKLWIYSTSNLASGVPARFSGSGSGTSYSLTISSMEAEDAASYFCHQWSSYPRTFGAGTKLELKR
B3: the Kd in assay [1] came to 0.0234 nM.

B4: SIRP2 (antibody, mouse IgG1, kappa, V domains shown)
VH: EVKLVESGGGLVQPGGSLKLSCAASGFSFSGCTMSWIRQTPERRLEWVAYISNGGDITYYPDTVKGRFTISRDNAKNSLYLQMSSLKSEDTAMYYCARLDGYYYAMDFWGQGTSVTVSS
VL: DILLTQSPAILSVSPGERVSFSCRASQSIGTSIHWYQQRTNGSPRLLIKYGSESISGIPSRFSGSGSGTDFTLSINSVESEDIADYYCQQSNTWPLTFGDGTKLELKR
notes: Hybridoma-derived mouse mAb
On to B4, for which the IC50 in assay [2] amounted to 3 nM.

B5: SIRP4 (antibody, V domains shown)
VH: EVQLQQSGPDLVKPGASVKISCKASGYSFTDYFLNWVKQSHGKSLEWIGRINPYNGDSFINQNFRDKATLTVDKSSTTAHMDLLSLTSEDSAIYYCGRGGYDGYFIAYFDYWGQGSLVTVSA
VL: DIKLTQSQSSMYSSLGQRVTITCKASQDINSHLSWFQEKPGKSPKTLIYRANRLADGVPSRFSGSGSGQDYFLTISSLEYEDVGIYYCLQYDEFPYTFGGGTKLEIK
notes: anti-mouse secondary
As for B5, the Kd in assay [1] was 0.05 nM; in assay [3], 0.0207 nM. The molecule also returned an IC50 in assay [2] of 0.71 nM.

B6: SIRP7 (antibody, V domains shown)
VH: EVQLQQSGPELVKPGASVKMSCRASGYTFSTYVMHWIKHRPGQGLEWIGYINPNNDGPNYNEKFKGKATLTSDISSSTAYMELSSLTSEDSAVYFCSRWDSYNSAAGFAYWGHGTLVTVSA
VL: EIVLTQSPTTMAASPGEKITIICSASSSISSNFLHWYQQKPGFSPRFLIYRTSILASGVPTRFSGSGSGTSYSLTIDTMEAEDVATYYCQQGSGLPLTFGSGTKLEIK
In assay [2], B6 gave an IC50 of 1.1 nM.

B7: SIRP5 (antibody, V domains shown)
VH: QVQLQQSAAELARPGASVKMSCKASGYTFTSYTMHWVKQRPGQGLEWIGYINPTIGYTEYNQKFKDKTTLTADKSSSTAYMQLSSLTSEDSAVYYCVRLVITSVLGRAMDYWGQGTSVTVSS
VL: QIVLTQSPALMSASPGEKVTMTCSASSSVSYMYWFQQKPRSSPKPWIYLTSNLASGVPARFSGSGSGTSYSLTISSMEAEDAATYYCQQWSGNPFTFGSGTKLEIK
For B7, in assay [1], the Kd is 0.77 nM.

One may read the IC50 as the concentration at which inhibition is half-maximal. Lower therefore signals higher potency.
